# In article PMC10798858:
# Biological target: Laa1-myc (budding yeast (S. cerevisiae)) (UniProt P39526)
# Experiment: co-IP
# Chain of UniProt P39526 (P39526 whole entry, the tested form may be a part): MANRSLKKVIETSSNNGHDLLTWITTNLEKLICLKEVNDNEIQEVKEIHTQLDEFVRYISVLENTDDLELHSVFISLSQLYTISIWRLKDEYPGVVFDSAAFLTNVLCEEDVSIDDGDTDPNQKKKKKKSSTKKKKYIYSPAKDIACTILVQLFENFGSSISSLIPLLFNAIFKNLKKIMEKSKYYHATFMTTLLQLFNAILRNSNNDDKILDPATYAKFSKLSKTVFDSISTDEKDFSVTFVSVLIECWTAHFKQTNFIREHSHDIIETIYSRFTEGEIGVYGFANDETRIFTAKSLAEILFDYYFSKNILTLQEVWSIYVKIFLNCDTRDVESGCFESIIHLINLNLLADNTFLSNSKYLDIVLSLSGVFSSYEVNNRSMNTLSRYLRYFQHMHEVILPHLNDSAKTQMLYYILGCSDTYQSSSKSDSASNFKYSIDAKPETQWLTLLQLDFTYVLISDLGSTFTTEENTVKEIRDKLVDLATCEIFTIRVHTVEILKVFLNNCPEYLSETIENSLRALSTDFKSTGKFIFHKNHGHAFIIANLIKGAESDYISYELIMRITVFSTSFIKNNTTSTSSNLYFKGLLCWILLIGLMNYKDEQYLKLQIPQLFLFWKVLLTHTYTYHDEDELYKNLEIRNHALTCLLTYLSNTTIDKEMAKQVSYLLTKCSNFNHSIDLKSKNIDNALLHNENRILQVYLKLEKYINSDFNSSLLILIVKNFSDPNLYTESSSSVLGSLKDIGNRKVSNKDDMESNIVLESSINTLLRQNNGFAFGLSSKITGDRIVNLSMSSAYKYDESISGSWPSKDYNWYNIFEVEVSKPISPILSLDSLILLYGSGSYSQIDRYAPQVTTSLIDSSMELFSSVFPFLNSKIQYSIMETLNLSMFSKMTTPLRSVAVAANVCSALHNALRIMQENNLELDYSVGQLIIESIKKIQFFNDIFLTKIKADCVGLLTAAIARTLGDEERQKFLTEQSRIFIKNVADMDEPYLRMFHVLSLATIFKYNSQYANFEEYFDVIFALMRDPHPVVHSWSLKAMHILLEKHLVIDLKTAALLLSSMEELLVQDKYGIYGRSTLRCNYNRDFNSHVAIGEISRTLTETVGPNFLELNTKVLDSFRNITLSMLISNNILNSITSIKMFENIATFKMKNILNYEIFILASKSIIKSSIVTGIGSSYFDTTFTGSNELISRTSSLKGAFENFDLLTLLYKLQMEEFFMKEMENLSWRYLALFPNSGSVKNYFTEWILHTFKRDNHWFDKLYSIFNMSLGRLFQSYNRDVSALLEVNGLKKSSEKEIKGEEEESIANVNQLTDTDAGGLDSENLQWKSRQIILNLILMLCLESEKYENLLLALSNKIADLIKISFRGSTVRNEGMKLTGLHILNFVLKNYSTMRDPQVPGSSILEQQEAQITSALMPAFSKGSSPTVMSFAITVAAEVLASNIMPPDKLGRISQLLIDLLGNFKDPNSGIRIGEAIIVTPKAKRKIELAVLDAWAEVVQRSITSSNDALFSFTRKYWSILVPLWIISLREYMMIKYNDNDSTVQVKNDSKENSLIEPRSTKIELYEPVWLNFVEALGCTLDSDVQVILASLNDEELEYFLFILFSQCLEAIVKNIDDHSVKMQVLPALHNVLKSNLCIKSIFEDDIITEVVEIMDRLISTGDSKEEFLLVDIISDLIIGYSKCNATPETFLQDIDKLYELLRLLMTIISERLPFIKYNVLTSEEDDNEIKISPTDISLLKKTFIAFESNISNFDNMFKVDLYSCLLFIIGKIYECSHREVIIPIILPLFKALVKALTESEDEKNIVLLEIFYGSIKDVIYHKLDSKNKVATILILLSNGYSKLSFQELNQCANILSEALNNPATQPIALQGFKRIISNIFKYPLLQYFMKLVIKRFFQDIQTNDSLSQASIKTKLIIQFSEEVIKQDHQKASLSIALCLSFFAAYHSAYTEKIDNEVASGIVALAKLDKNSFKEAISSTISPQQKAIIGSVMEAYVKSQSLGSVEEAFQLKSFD
row,"interaction with Laa1, percent of wild type (% of wild-type levels)",Substance
1,60,Lft1-ΔHR3 tagged with 6-HIS-TEV-3FLAG (HTF) (from UniProt Q03703 1-340) (natural protein)
2,60,Lft1-ΔHR1 tagged with 6-HIS-TEV-3FLAG (HTF) (from UniProt Q03703 1-340) (natural protein)
